According to patent US20060142192A1 (ZymoGenetics, published 2006):

Key:
Assay in all cases: flow cytometry, biotinylated IL-17C (1 ug/ml) + streptavidin-PE on stably transfected BHK cells
human ZcytoR21x13 = target: T1, human ZcytoR21x13 (human, UniProt Q8NFR9 24-667)
T1 construct: also called hcytor21x13
T1 sequence: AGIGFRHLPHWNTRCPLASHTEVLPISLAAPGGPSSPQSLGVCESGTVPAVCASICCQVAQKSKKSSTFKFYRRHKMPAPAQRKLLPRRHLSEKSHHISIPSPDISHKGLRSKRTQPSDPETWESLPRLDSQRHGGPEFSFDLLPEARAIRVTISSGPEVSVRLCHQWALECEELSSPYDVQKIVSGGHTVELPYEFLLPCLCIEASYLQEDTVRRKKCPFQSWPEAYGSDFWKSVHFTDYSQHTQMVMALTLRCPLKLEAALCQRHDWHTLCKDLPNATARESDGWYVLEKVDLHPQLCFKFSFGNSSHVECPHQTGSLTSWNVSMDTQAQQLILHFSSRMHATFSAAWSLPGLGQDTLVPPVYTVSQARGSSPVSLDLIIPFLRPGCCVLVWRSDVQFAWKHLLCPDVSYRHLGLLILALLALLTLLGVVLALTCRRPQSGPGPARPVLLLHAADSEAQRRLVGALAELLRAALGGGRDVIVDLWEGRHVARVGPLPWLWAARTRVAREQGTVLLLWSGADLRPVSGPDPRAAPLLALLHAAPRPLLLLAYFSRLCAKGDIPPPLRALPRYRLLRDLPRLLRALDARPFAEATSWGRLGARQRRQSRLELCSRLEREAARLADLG
Protocol: (§1) BHK cells stably transfected with human and mouse ZcytoR21 splice variants were plated and grown to confluency in T-75 flasks. Cells were lifted off using a non-protease reagent such as Versene (Invitrogen 15040-066), pelleted, and resuspended in a staining reagent (HBSS+1% BSA+0.1% NaAzide+10 mM HEPES) at 2×10e7 cells/ml and aliquoted to a 96-well Costar plate. IL-17C that has been labeled with biotin was independently added to cells at a concentration of 1 ug/ml. The cell/ligand mixture can be incubated for 1 hr at 4 degrees. The wells were washed 1× in staining reagent, and incubated in a secondary reagent containing staining reagent plus Streptavidin-PE (BD Pharmingen 554061) at a 1:100 ratio. The wells were incubated at 4° C. in the dark for 1 hr, followed by a 2× wash in staining media. The cells were then resuspended in a 1:1 mixture of staining media and Cytofix (BD Bioscience 554655) and incubated 10 minutes at RT. The cells were analysed by Flow Cytometry and by gating on the PE positive events for cells that bound IL-17C.

murine ZcytoR21x6 = target: T2, murine ZcytoR21x6 (mouse, UniProt Q8BH06 24-637)
T2 construct: also called mouse ZcytoR21x6; mcytor21x6
T2 sequence: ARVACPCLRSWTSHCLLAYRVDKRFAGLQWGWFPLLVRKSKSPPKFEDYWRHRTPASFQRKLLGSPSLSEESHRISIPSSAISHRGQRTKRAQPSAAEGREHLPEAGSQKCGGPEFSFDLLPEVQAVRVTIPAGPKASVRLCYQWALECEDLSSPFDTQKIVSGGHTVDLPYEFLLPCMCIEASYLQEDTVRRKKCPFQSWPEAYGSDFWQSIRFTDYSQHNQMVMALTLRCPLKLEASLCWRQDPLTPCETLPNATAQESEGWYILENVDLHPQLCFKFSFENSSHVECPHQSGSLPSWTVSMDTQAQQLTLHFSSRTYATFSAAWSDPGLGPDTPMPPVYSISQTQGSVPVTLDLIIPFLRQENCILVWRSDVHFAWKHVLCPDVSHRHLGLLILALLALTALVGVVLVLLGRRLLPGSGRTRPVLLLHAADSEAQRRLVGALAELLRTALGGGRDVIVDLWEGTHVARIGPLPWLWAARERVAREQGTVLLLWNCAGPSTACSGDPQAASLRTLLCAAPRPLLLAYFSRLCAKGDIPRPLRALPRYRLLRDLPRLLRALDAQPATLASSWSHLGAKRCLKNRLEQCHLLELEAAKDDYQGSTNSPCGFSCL
Protocol: as §1

human ZcytoR21x6 = target: T3, human ZcytoR21x6 (human, UniProt Q8NFR9 24-667)
T3 construct: also called hcytor21x6
T3 sequence: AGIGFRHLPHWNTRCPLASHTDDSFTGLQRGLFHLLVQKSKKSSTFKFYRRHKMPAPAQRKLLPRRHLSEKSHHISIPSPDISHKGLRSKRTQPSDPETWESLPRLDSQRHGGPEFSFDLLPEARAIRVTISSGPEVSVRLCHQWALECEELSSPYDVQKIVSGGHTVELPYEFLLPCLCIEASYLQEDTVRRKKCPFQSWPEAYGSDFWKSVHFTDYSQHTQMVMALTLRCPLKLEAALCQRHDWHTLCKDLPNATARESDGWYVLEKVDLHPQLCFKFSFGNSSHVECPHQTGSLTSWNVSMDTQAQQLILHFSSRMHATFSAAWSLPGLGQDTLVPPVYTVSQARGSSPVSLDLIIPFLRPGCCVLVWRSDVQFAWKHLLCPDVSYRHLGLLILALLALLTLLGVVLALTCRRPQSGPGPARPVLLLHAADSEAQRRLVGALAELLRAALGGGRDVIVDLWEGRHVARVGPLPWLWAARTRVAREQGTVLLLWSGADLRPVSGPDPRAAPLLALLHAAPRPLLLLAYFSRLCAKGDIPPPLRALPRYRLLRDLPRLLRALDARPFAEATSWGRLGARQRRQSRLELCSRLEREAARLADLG
Protocol: as §1

Measured: binding result

B1: human IL-17C (ligand)
chain: HHDPSLRGHPHSHGTPHCYSAEELPLGQAPPHLLARGAKWGQALPVALVSSLEAASHRGRHERPSATTQCPVLRPEEVLEADTHQRSISPWRYRVDTDEDRYPQKLAFAECLCRGCIDARTGRETAALNSVRLLQSLLVLRRRPCSRDGSGLPTPGAFAFHTEFIHVPVGCTCVLPRSV
modifications: biotin label in the binding assays (sites not given); unlabelled in the signalling assays
notes: it is the last residue of the open reading frame as I know it; Recombinant forms made carried a C-terminal Glu-Glu tag (BHK) or His tag (293F); also called biotinylated human IL-17C; human IL-17C (A903G)
binds: human ZcytoR21x13 | murine ZcytoR21x6 | human ZcytoR21x6
